Measurements from article PMC5932954, “Evaluation of Fluorine-18-Labeled α1(I)-N-Telopeptide Analogs as Substrate-Based Radiotracers for PET Imaging of Melanoma-Associated Lysyl Oxidase” (Frontiers in Chemistry, 2018).
Where a SMILES comes first, the peptide text is derived from it. [ ]: non-standard residue; d: D form. The star is where a group is joined. Benzoyl(4-F) = O=C(c1ccc(F)cc1)*; pGlu = O=C1CC[C@@H](C(=O)O)N1

Columns and labels:
[1] = biological target: T1, bovine type I atelocollagen (Bos taurus, UniProt P02453+P02465, DEL1103-1117); test: SPR binding of telopeptide derivatives to immobilized atelocollagen; settings: for ka1: SPR Biacore T100, CM5 chip, analyte 45 to 950 μM, HEPES buffer pH 7.4, 25°C; for ka1 / ka2 / kd1 / kd2: two-state reaction model, mean of n = 5; for ka2 / kd1 / kd2 / Kd / kon / koff: SPR; for ka2 / kd1 / kd2 / Kd: pH 7.4, 25°C; for Kd: calculated from the individual rate constants (Equation 1); for Kd / kon / koff: n = 5; for kon: calculated as koff/KD (Equation 3), read-out: kon (global association rate constant to final complex); for koff: calculated from the individual rate constants (Equation 2), read-out: koff (global dissociation rate constant of final complex)
T1 construct: bovine type I atelocollagen (=pepsin-treated type I collagen; Matrix Bioscience); purchased Matrix Bioscience
Experimental: In order to probe binding of the telopeptide derivatives to atelocollagen surface plasmon resonance (SPR) measurements were performed on a T100 Biacore system (GE Healthcare) (Hoppmann et al., [2010]). In brief, bovine type I atelocollagen (=pepsin-treated type I collagen; Matrix Bioscience) was immobilized as ligand on a CM5 (carboxymethylated dextran polymer) sensor chip using EDC/NHS chemistry. About 12,000 arbitrary response (resonance) units (RU) were immobilized. Various concentrations of the analytes (1, 2, and 4a) ranging from 45 to 950 μM were analyzed. The flow buffer used was 10 mM HEPES, 3.0 mM EDTA-Na2, 0.15 M NaCl (pH 7.4) containing 0.05% surfactant P20. Association and dissociation of all analytes was followed in real-time and measured at 25°C at a flow rate of 30 μL/min. After each cycle, the surface was regenerated using 50 mM NaOH. The data were fitted to a two-state reaction model (see scheme below) including reference subtraction and blank buffer correction derived from blank runs using the Biacore Evaluation software 2.0.4.
The parameters KD, koff, and kon were calculated from the individual rate constants by the following equations (Tummino and Copeland, [2008]): […]

[2] = biological target: bovine type I atelocollagen (pepsin-treated bovine type I collagen) (bovine); test: SPR; Biacore T100; bovine type I atelocollagen immobilised on a CM5 chip by EDC/NHS (about 12,000 RU); peptides as analytes, 45 to 950 μM; 10 mM HEPES, 3.0 mM EDTA-Na2, 0.15 M NaCl, pH 7.4, 0.05% surfactant P20; 25°C; 30 μL/min; two-state reaction model; KD, koff and kon calculated from the individual rate constants; settings: both partners purified

T1 sequence (P02453 178-1191 limits assumed, stated change not applied): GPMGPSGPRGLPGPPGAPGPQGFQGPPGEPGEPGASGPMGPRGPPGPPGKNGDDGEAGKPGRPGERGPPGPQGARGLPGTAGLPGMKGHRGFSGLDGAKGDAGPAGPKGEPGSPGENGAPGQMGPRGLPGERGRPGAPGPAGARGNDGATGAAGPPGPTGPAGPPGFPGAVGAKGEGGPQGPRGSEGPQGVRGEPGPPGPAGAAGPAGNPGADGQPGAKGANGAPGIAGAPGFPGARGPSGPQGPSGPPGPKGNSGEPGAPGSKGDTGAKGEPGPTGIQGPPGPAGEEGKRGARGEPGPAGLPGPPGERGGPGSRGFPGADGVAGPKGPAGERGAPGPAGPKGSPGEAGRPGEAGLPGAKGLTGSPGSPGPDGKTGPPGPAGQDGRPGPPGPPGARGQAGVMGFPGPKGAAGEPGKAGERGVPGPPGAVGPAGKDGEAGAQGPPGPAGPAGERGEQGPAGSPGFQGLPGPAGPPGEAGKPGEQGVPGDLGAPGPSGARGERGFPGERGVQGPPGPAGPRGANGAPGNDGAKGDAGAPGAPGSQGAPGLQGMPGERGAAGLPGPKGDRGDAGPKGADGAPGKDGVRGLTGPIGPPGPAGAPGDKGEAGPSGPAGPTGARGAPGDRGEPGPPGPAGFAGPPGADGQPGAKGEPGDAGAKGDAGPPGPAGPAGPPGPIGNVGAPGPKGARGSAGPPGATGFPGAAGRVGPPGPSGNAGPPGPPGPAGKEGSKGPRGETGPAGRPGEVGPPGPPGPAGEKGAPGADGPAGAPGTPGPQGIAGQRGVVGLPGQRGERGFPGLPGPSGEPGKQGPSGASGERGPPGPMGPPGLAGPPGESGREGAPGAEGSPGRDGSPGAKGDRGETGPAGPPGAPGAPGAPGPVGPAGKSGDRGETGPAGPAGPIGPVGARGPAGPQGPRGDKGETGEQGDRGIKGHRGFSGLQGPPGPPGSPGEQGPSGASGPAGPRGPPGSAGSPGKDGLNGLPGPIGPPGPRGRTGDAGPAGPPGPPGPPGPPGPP
T1 sequence (P02465 89-1102 limits assumed, stated change not applied): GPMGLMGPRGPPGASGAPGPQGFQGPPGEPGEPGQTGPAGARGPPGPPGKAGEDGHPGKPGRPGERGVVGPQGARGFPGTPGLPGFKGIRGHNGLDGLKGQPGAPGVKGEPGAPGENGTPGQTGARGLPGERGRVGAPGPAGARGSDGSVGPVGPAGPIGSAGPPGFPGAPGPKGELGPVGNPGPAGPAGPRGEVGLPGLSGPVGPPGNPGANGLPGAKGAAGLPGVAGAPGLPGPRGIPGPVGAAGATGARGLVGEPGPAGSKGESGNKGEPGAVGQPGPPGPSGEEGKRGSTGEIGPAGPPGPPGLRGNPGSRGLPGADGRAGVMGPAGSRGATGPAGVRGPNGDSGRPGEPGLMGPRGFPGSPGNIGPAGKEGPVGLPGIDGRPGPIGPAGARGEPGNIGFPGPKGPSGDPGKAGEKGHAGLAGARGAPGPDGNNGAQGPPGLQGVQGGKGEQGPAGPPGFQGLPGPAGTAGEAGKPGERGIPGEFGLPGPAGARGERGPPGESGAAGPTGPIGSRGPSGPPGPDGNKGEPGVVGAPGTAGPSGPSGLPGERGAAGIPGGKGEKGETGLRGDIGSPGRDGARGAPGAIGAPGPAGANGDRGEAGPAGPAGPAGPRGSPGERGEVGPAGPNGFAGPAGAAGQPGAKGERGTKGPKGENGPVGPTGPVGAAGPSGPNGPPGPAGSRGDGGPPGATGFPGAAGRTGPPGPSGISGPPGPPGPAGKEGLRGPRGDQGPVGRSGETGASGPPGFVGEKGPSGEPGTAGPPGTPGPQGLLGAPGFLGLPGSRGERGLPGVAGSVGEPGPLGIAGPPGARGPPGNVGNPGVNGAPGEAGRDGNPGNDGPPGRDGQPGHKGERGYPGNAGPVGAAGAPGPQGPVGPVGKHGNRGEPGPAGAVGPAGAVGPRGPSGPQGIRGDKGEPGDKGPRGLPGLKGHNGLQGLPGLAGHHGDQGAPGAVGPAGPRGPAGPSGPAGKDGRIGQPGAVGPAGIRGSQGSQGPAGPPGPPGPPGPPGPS

`CC[C@H](C)[C@H](NC(=O)CNC(=O)[C@@H](NC(=O)[C@H](CO)NC(=O)[C@H](CCCCN)NC(=O)[C@H](CCC(=O)O)NC(=O)[C@H](CC(=O)O)NC(=O)[C@H](Cc1ccc(O)cc1)NC(=O)CNC(=O)[C@H](Cc1ccc(O)cc1)NC(=O)[C@H](CO)NC(=O)[C@H](CC(C)C)NC(=O)[C@@H]1CCC(=O)N1)[C@@H](C)O)C(=O)N[C@@H](CO)C(=O)N[C@H](C(=O)N1CCC[C@H]1C(N)=O)C(C)C` [Peptide 1, pGlu-LSYGYDEKSTGISVP-NH2, reference compound] ([pGlu]LSYGYDEKSTGISVP-NH2) gave a ka1 [1] of 123 M⁻¹ s⁻¹, a ka2 [1] of 0.00532 s⁻¹ and a kd1 [1] of 0.75 s⁻¹. It also gave a kd2 [1] of 0.00294 s⁻¹, a Kd [1] of 2170 µM and a kon [1] of 1.34 M⁻¹ s⁻¹. It also gave a koff [1] of 0.00291 s⁻¹.

`CC[C@H](C)[C@H](NC(=O)CNC(=O)[C@@H](NC(=O)[C@H](CO)NC(=O)[C@H](CCCCN)NC(=O)[C@H](CCC(=O)O)NC(=O)[C@H](CC(=O)O)NC(=O)[C@H](Cc1ccc(O)cc1)NC(=O)CNC(=O)[C@H](Cc1ccc(O)cc1)NC(=O)[C@H](CO)NC(=O)[C@H](CC(C)C)NC(=O)c1ccc(F)cc1)[C@@H](C)O)C(=O)N[C@@H](CO)C(=O)N[C@H](C(=O)N1CCC[C@H]1C(N)=O)C(C)C` [Peptide 2, FBz-LSYGYDEKSTGISVP-NH2] ({Benzoyl(4-F)}-LSYGYDEKSTGISVP-NH2) gave a Kd [1] of 78.8 µM, a kon [1] of 11.2 M⁻¹ s⁻¹ and a koff [1] of 0.000879 s⁻¹.

`NCCCC[C@H](NC(=O)[C@@H]1CCCN1C(=O)[C@H](CC(=O)O)NC(=O)CNC(=O)CNC(=O)CNC(=O)c1ccc(F)cc1)C(=O)NCC(=O)NCC(=O)NCC(=O)NCC(=O)NCC(N)=O` [Peptide 4a, FBz-GGGDPKGGGGG-NH2] ({Benzoyl(4-F)}-GGGDPKGGGGG-NH2) showed a ka1 [1] of 188 M⁻¹ s⁻¹, a ka2 [1] of 0.00494 s⁻¹ and a kd1 [1] of 0.268 s⁻¹. It also gave a kd2 [1] of 0.00411 s⁻¹, a kon [1] of 6.15 M⁻¹ s⁻¹ and a koff [1] of 0.00398 s⁻¹.

B1: α1(I)-N-telopeptide (peptide 1), pGlu-LSYGYDEKSTGISVP-NH2 (peptide)
peptide: [pGlu]LSYGYDEKSTGISVP-NH2
SMILES: CC[C@H](C)[C@H](NC(=O)CNC(=O)[C@@H](NC(=O)[C@H](CO)NC(=O)[C@H](CCCCN)NC(=O)[C@H](CCC(=O)O)NC(=O)[C@H](CC(=O)O)NC(=O)[C@H](Cc1ccc(O)cc1)NC(=O)CNC(=O)[C@H](Cc1ccc(O)cc1)NC(=O)[C@H](CO)NC(=O)[C@H](CC(C)C)NC(=O)[C@@H]1CCC(=O)N1)[C@@H](C)O)C(=O)N[C@@H](CO)C(=O)N[C@H](C(=O)N1CCC[C@H]1C(N)=O)C(C)C
notes: N-terminal telopeptide of the α1 chain of type I collagen; also called N-terminal telopeptide of the α1 chain of type I collagen; authentic isolated α1(I)-N-telopeptide; source: synthetic peptide (microwave-assisted Fmoc solid-phase synthesis)
In the case of B1, the Kd [2] is reported as 2170 µM, the “ka1 (two-state model, step 1)” value [2] is reported as 123 M⁻¹ s⁻¹ and the “ka2 (two-state model, step 2)” value [2] is reported as 0.00532 s⁻¹. For the same molecule, the “kd1 (two-state model, step 1)” value [2] was 0.75 s⁻¹, the “kd2 (two-state model, step 2)” value [2] was 0.00294 s⁻¹ and the koff [2] was 0.00291 s⁻¹. It also gave a kon [2] of 1.34 M⁻¹ s⁻¹.

B2: DPK-containing undecapeptide 4a, FBz-GGGDPKGGGGG-NH2 (peptide)
chain: {Benzoyl(4-F)}-GGGDPKGGGGG-NH2
SMILES: NCCCC[C@H](NC(=O)[C@@H]1CCCN1C(=O)[C@H](CC(=O)O)NC(=O)CNC(=O)CNC(=O)CNC(=O)c1ccc(F)cc1)C(=O)NCC(=O)NCC(=O)NCC(=O)NCC(=O)NCC(N)=O
For B2, the Kd [2] was 647 µM, the “ka1 (two-state model, step 1)” value [2] was 188 M⁻¹ s⁻¹ and the “ka2 (two-state model, step 2)” value [2] was 0.00494 s⁻¹. For the same molecule, the “kd1 (two-state model, step 1)” value [2] was 0.268 s⁻¹, the “kd2 (two-state model, step 2)” value [2] was 0.00411 s⁻¹ and the koff [2] was 0.00398 s⁻¹. It also gave a kon [2] of 6.15 M⁻¹ s⁻¹.

B3: 4-fluorobenzoylated α1(I)-N-telopeptide analog (peptide 2), FBz-LSYGYDEKSTGISVP-NH2 (peptide)
peptide: {Benzoyl(4-F)}-LSYGYDEKSTGISVP-NH2
SMILES: CC[C@H](C)[C@H](NC(=O)CNC(=O)[C@@H](NC(=O)[C@H](CO)NC(=O)[C@H](CCCCN)NC(=O)[C@H](CCC(=O)O)NC(=O)[C@H](CC(=O)O)NC(=O)[C@H](Cc1ccc(O)cc1)NC(=O)CNC(=O)[C@H](Cc1ccc(O)cc1)NC(=O)[C@H](CO)NC(=O)[C@H](CC(C)C)NC(=O)c1ccc(F)cc1)[C@@H](C)O)C(=O)N[C@@H](CO)C(=O)N[C@H](C(=O)N1CCC[C@H]1C(N)=O)C(C)C
notes: N-terminal telopeptide of the α1 chain of type I collagen without its N-terminal pyroglutamate, which is replaced by a 4-fluorobenzoyl residue; source: synthetic peptide (microwave-assisted Fmoc solid-phase synthesis, as in Kuchar et al., 2012)
For B3, the Kd [2] was 78.8 µM, the “ka1 (two-state model, step 1)” value [2] was 57.4 M⁻¹ s⁻¹ and the “ka2 (two-state model, step 2)” value [2] was 0.0141 s⁻¹. For the same molecule, the “kd1 (two-state model, step 1)” value [2] was 0.0631 s⁻¹, the “kd2 (two-state model, step 2)” value [2] was 0.00109 s⁻¹ and the koff [2] was 0.000879 s⁻¹. It also gave a kon [2] of 11.2 M⁻¹ s⁻¹.
